6 molecules from patent US20080248034A1 (MORPHOTEK, published 2008) can be followed below.

First the molecules themselves.
B6: Fc-TEM1 (soluble recombinant endosialin: full-length TEM1 extracellular domain fused to monomeric murine IgG2b Fc) (Fc fusion, human)
chain: QDPWAAEPRAACGPSSCYALFPRRRTFLEAWRACRELGGDLATPRTPEEAQRVDSLVGAGPASRLLWIGLQRQARQCQLQRPLRGFTWTTGDQDTAFTNWAQPASGGPCPAQRCVALEASGEHRWLEGSCTLAVDGYLCQFGFEGACPALQDEAGQAGPAVYTTPFHLVSTEFEWLPFGSVAAVQCQAGRGASLLCVKQPEGGVGWSRAGPLCLGTGCSPDNGGCEHECVEEVDGHVSCRCTEGFRLAADGRSCEDPCAQAPCEQQCEPGGPQGYSCHCRLGFRPAEDDPHRCVDTDECQIAGVCQQMCVNYVGGFECYCSEGHELEADGISCSPAGAMGAQASQDLGDELLDDGEDEEDEDEAWKAFNGGWTEMPGILWMEPTQPPDFALAYRPSFPEDREPQIPYPEPTWPPPLSAPRVPYHSSVLSVTRPVVVSATHPTLPSAHQPPVIPATHPALSRDHQIPVIAANYPDLPSAYQPGILSVSHSAQPPAHQPPMISTKYPELFPAHQSPMFPDTRVAGTQTTTHLPGIPPNHAPLVTTLGAQLPPQAPDALVLRTQATQLPIIPTAQPSLTTTSRSPVSPAHQISVPAATQPAALPTLLPSQSPTNQTSPISPTHPHSKAPQIPREDGPSPKLALWLPSPAPTAAPTALGEAGLAEHSQRDDRWLDDDD
notes: extracellular domain; Monomeric secreted fusion protein made in CHO cells; also called TEM1-Fcγ; not shown: murine IgG2b Fcγ domain (hinge through CH3), modified: the four cysteine residues responsible for inter-heavy chain disu

The target in assay [1] is B6. The assay can be described thus: antigen-specific ELISA, coated at 0.2 ug/ml (FIG. 4B). On the technique in general: An ELISA detects its analyte on a solid surface through an enzyme-linked reagent.
Assay [2] concerns the target B6. The assay can be described thus: ELISA on coated FN fragments (FIG. 7A).
Assay [3] has as its target T1, murine TEM-1 (in mouse 2H11 cells) (mouse, UniProt Q91V98 18-765).
T1 construct: Endogenous protein in lysate of mouse 2H11 cells, on a Western blot; also called murine endosialin
T1 sequence: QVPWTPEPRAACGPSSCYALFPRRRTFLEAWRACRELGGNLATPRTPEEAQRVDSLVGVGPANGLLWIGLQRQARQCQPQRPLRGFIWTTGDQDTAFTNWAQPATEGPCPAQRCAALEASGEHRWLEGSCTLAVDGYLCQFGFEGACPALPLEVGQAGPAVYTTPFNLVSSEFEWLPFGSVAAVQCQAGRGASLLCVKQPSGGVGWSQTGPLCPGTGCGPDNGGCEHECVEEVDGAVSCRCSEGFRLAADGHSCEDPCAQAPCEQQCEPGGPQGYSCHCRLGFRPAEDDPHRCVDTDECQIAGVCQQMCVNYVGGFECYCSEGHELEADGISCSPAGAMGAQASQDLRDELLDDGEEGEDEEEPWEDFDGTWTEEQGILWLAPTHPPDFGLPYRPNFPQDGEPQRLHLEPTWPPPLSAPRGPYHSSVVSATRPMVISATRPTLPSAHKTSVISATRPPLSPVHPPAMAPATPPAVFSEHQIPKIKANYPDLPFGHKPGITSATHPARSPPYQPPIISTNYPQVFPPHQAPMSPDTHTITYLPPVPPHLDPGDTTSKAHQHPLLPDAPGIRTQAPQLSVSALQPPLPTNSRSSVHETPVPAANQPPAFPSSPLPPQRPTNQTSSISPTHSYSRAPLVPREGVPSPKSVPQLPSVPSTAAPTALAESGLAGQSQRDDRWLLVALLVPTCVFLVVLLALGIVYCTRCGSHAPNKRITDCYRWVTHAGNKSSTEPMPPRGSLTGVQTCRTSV
Description: Western blot of cell lysates (FIG. 15). (In general: In western blotting, separated proteins are transferred to a membrane and probed.)

Assay [4] deals with B6. The assay can be described thus: antigen-specific ELISA, coated at 2 ug/ml (FIG. 4B).
The target of assay [5] is T2, 120 kDa fibronectin fragment containing the cell attachment domain (UniProt P02751-1 722-1635, limits assumed).
T2 construct: domain: 120 kDa fragment containing the cell attachment domain; Bought fragment; also called the 120 kDa fragment; 120 kDa cell attachment FN-fragment
Description: ELISA on coated FN fragments (FIG. 7A).

T2 sequence (P02751 other isoform, or with tags, fused parts or gaps limits assumed): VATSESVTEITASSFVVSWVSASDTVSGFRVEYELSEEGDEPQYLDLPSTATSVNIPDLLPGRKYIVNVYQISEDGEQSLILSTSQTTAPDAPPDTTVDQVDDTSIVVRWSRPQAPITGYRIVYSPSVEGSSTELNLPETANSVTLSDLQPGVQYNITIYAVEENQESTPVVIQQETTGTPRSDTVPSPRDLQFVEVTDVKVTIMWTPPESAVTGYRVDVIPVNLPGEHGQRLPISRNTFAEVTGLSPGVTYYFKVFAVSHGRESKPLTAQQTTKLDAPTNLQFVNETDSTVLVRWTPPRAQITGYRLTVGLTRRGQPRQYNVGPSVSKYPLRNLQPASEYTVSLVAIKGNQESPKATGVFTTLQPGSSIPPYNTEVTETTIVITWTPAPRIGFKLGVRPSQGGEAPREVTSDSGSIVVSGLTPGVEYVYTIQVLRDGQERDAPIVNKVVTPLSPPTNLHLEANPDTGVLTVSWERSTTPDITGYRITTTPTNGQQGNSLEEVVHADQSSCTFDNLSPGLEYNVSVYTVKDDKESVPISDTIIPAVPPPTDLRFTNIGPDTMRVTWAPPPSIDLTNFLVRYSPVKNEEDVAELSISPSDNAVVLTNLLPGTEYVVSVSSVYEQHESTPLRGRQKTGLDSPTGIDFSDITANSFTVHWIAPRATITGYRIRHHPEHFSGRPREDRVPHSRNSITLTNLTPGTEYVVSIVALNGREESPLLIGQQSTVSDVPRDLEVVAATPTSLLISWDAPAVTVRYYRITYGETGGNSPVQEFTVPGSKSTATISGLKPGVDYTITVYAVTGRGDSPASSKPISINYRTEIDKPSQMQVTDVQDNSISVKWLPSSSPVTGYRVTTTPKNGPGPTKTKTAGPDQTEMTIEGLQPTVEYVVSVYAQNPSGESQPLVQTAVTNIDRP

B1: human mesothelin (other, UniProt Q13421 296-598, looked up)
chain: EVEKTACPSGKKAREIDESLIFYKKWELEACVDAALLATQMDRVNAIPFTYEQLDVLKHKLDELYPQGYPESVIQHLGYLFLKMSPEDIRKWNVTSLETLKALLEVNKGHEMSPQVATLIDRFVKGRGQLDKDTLDTLTAFYPGYLCSLSPEELSSVPPSSIWAVRPQDLDTCDPRQLDVLYPKARLAFQNMNGSEYFVKIQSFLGGAPTEDLKALSQQNVSMDLATFMKLRTDAVLPLTVAEVQKLLGPHVEGLKAEERHRPVRDWILRQRQDDLDTLGLGLQGGIPNGYLVLDLSMQEALS
For B1, the binding result in assay [1] was “no binding (tested: 5, 10, 50 ug/ml)”.

B2: recombinant human fibronectin fragment 4 (Fn4) (other)
chain: VTDATETTITISWRTKTETITGFQVDAVPANGQTPIQRTIKPDVRSYTITGLQPGTDYKIYLYTLNDNARSSPVVIDASTAIDAPSNLRFLATTPNSLLVSWQPPRARITGYIIKYEKPGSPPREVVPRPRPGVTEATITGLEPGTEYTIYVIALKNNQKSEPLIGRKKTDELPQLVTLPHPNLHGPEILDVPSTVQKTPFVTHPGYDTGNGIQLPGTSGQQPSVGQQMIFEEHGFRRTTPPTTATPIRHRPRPYPPNVGEEIQIGHIPREDVDYHLYPHGPGLNPNASTGQEALSQTTISWAPFQDTSEYIISCHPVGTDEEPLQFRVPGTSTSATLTGLTRGATYNIIVEALKDQQRHKVREEVVTVGNSVNEGLNQPTDDSCFDPYTVSHYAVGDEWERMSESGFKLLCQCLGFGSGHFRCDSSRWCHDNGVNYKIGEKWDRQGENGQMMSCTCLGNGKGEFKCDPHEATCYDDGKTYHVGEQWQKEYLGAICSCTCFGGQRGWRCDNCRRPGGEPSPEGTTGQSYNQYSQRYHQRTNTNVNCPIECFMPLDVQADREDSRE
notes: Bought (R&D Systems)
Regarding B2, in assay [2], the binding result is given as “no binding (tested: 1.25 ug/ml)”.

B3: M4.1 (humanized antibody to human endosialin) (antibody, human IgG1, kappa)
heavy: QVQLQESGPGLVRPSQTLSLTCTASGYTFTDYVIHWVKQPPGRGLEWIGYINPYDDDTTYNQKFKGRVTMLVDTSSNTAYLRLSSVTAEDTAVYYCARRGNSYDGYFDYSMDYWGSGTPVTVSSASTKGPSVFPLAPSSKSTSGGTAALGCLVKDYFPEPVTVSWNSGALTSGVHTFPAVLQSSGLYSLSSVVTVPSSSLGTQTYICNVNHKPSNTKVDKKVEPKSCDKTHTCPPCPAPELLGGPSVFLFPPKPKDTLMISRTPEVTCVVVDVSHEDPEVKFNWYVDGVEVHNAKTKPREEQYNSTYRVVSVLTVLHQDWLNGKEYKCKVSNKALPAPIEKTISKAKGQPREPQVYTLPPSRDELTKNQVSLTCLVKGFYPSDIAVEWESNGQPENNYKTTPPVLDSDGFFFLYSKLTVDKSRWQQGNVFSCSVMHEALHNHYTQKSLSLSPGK
light: DIQMTQSPSSLSASVGDRVTITCRASQNVGTAVAWLQQTPGKAPKLLIYSASNRYTGVPSRFSGSGSGTDYTFTISSLQPEDIATYYCQQYTNYPMYTFGQGTKVQIKRTVAAPSVFIFPPSDEQLKSGTASVVCLLNNFYPREAKVQWKVDNALQSGNSQESVTEQDSKDSTYSLSSTLTLSKADYEKHKVYACEVTHQGLSSPVTKSFNRGEC
notes: also called antibody M4.1
Consider B3, for which, in assay [3], the binding result is on record as “no binding (tested: 3.3 ug/mL)”.

B4: ovalbumin (OVA) (other, UniProt P01012 2-386, looked up)
chain: GSIGAASMEFCFDVFKELKVHHANENIFYCPIAIMSALAMVYLGAKDSTRTQINKVVRFDKLPGFGDSIEAQCGTSVNVHSSLRDILNQITKPNDVYSFSLASRLYAEERYPILPEYLQCVKELYRGGLEPINFQTAADQARELINSWVESQTNGIIRNVLQPSSVDSQTAMVLVNAIVFKGLWEKAFKDEDTQAMPFRVTEQESKPVQMMYQIGLFRVASMASEKMKILELPFASGTMSMLVLLPDEVSGLEQLESIINFEKLTEWTSSNVMEERKIKVYLPRMKMEEKYNLTSVLMAMGITDVFSSSANLSGISSAESLKISQAVHAAHAEINEAGREVVGSAEAGVDAASVSEEFRADHPFLFCIKHIATNAVLFFGRCVSP
On to B4, for which the binding result in assay [4] is listed as “no binding (tested: 5, 10, 50 ug/ml)”.

B5: recombinant human fibronectin fragment 2 (Fn2) (other)
chain: SSSGPVEVFITETPSQPNSHPIQWNAPQPSHISKYILRWRPKNSVGRWKEATIPGHLNSYTIKGLKPGVVYEGQLISIQQYGHQEVTRFDFTTTSTSTPVTSNTVTGETTPFSPLVATSESVTEITASSFVVSWVSASDTVSGFRVEYELSEEGDEPQYLDLPSTATSVNIPDLLPGRKYIVNVYQISEDGEQSLILSTSQTTAPDAPPDPTVDQVDDTSIVVRWSRPQAPITGYRIVYSPSVEGSSTELNLPETANSVTLSDLQPGVQYNITIYAVEENQESTPVVIQQETTGTPRSDTVPSPRDLQFVEVTDVKVTIMWTPPESAVTGYRVDVIPVNLPGEHGQRLPISRNTFAEVTGLSPGVTYYFKVFAVSHGRESKPLTAQQTTKLDAPTNLQFVNETDSTVLVRWTPPRAQITGYRLTVGLTRRGQPRQYNVGPSVSKYPLRNLQPASEYTVSLVAIKGNQESPKATGVFTTLQPGSSIPPYNTEVTETTIVITWTPAPRIGFKLGVRPSQGGEAPREVTSDSGSIVVSGLTPGVEYVYTIQVLRDGQERDAPIVNKVVTPLSPPTNLHLEANPDTGVLTVSWERSTTPDITGYRITTTPTNGQQGNSLEEVVHADQSSCTFDNLSPGLEYNVSVYTVKDDKESVPISDTIIP
notes: Bought (R&D Systems)
Regarding B5, the binding result in assay [2] is “no binding (tested: 1.25 ug/ml)”. For the molecule B6, the binding result in assay [5] is reported as “no binding (tested: 1.25 ug/ml)”.
